Values of other authors, collected in publication PMC4372107.
Where “and” joins values, the source holds several entries; their conditions need not be identical. Equal values may be shown once.

Target: U2AF65 RRM123 (Homo sapiens) (UniProt P26368)
Assay: ITC

Chain of UniProt P26368 (P26368 148-475, one chain of several): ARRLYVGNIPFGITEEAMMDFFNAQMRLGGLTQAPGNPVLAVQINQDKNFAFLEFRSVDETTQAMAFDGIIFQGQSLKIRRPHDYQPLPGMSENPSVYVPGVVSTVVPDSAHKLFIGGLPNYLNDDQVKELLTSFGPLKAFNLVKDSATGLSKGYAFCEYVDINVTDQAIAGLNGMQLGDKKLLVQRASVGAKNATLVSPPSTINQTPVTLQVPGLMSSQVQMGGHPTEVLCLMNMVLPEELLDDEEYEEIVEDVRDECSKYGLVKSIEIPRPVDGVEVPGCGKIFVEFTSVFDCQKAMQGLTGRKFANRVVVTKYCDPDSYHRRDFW

- Kd: 114 nM and 96 nM
Substance: SF1 (from UniProt Q15637)
